For the test, the target named is proliferating cell nuclear antigen (PCNA), Saccharomyces cerevisiae (Saccharomyces cerevisiae) (UniProt P15873). Put plainly: single-molecule correlative force and fluorescence microscopy.
Chain of UniProt P15873 (P15873 whole entry): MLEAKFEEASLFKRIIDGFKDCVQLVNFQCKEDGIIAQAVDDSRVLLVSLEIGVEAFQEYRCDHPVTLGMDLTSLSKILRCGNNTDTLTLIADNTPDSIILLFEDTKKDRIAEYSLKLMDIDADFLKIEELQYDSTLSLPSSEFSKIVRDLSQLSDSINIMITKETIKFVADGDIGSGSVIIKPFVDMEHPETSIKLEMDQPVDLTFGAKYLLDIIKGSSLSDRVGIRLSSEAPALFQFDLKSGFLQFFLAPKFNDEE

“replication factor C (RFC), Saccharomyces cerevisiae, full-length (from UniProt P38630 1-861) (complex)” returned a tethers with RFC along the path of fill-in together with PCNA (of 14 tethers) of 9.
